Data as given in the RNAGym collection of RNA variant scans (doi:10.7554/elife.80360).

B1: Hairpin Ribozyme (parent)
chain: GUCCUCUUUCACGUGCGCGUGAAAGAGAGAAGUGAACCAGAGAAACACACGUUGUGGUAUAUUACCUGGUA

Variants of: B1
Experiment: self-cleavage, relative activity (ratio to wild type); higher = more cleavage; co-transcriptional

Variant	self-cleavage
GUCCUCUUUCACGUGCGCGUGAAAGAGAGAAGUAAGCCAGAGAAACACACGUUGUGGUAUAUUACCUGGUA [G34A A36G]	1.19
GUCCUCUUUCACGUGCGCGUGAAAGAGAGAAGCGAACCAGAGAAACACACGUUGUGGUAUAUUACCGGGUA [U33C U67G]	0.21
GUCCUCUUUCACGUGCGCGUGAAAGAGAGAAGGGAACCAGAGAAACACACGUUGUGGUAUGUUACCUGGUA [U33G A61G]	0.229
GUCCUCUUUCACGUGCGCGUGAAAGAGAGAAGGGAACCAGAGAAACACACGUUGUGGUAUUUUACCUGGUA [U33G A61U]	0.0863
GUCCUCUUUCACGUGCGCGUGAAAGAGAGAAGGGAACCAGAGAAACACACGUUGUGGUAUAAUACCUGGUA [U33G U62A]	0.126
GUCCUCUUUCACGUGCGCGUGAAAGAGAGAAGGGAACCAGAGAAACACACGUUGUGGUAUAGUACCUGGUA [U33G U62G]	0.0966
GUCCUCUUUCACGUGCGCGUGAAAGAGAGAAGCGAACCAGAGAAACAUACGUUGUGGUAUAUUACCUGGUA [U33C C48U]	0.118
GUCCUCUUUCACGUGCGCGUGAAAGAGAGAAGCGAACCAGAGAAACACACGUUGUGGUAUAUUACUUGGUA [U33C C66U]	0.149
GUCCUCUUUCACGUGCGCGUGAAAGAGAGAAGCGAACCAGAGAAACACACGUCGUGGUAUAUUACCUGGUA [U33C U53C]	0.154
GUCCUCUUUCACGUGCGCGUGAAAGAGAGAAGGGAACCAGAGAAACACACGUUGUGGUAUAUUACCUGGCA [U33G U70C]	0.101
GUCCUCUUUCACGUGCGCGUGAAAGAGAGAAGGGAACCAGAGAAACAUACGUUGUGGUAUAUUACCUGGUA [U33G C48U]	0.112
GUCCUCUUUCACGUGCGCGUGAAAGAGAGAAGGGAACCAGAGAAACAGACGUUGUGGUAUAUUACCUGGUA [U33G C48G]	0.209
GUCCUCUUUCACGUGCGCGUGAAAGAGAGAAGGGAACCAGAGAAACACACGUUUUGGUAUAUUACCUGGUA [U33G G54U]	0.0691
GUCCUCUUUCACGUGCGCGUGAAAGAGAGAAGGGAACCAGAGAAACACACGUUCUGGUAUAUUACCUGGUA [U33G G54C]	0.145
GUCCUCUUUCACGUGCGCGUGAAAGAGAGAAGGGAACCAGAGAAACACACGUUAUGGUAUAUUACCUGGUA [U33G G54A]	0.111
GUCCUCUUUCACGUGCGCGUGAAAGAGAGAAGCGAAUCAGAGAAACACACGUUGUGGUAUAUUACCUGGUA [U33C C37U]	0.0997
GUCCUCUUUCACGUGCGCGUGAAAGAGAGAAGCGAAACAGAGAAACACACGUUGUGGUAUAUUACCUGGUA [U33C C37A]	0.182
GUCCUCUUUCACGUGCGCGUGAAAGAGAGAAGCGAACCAGAGAAAAACACGUUGUGGUAUAUUACCUGGUA [U33C C46A]	0.0278
GUCCUCUUUCACGUGCGCGUGAAAGAGAGAAGGGAACCAGAGAAACACACGUUGUGGUAGAUUACCUGGUA [U33G U60G]	0.0365

Variant	self-cleavage
GUCCUCUUUCACGUGCGCGUGAAAGAGAGAAGGGAACCAGAGAAACACACGUUGUGGUAAAUUACCUGGUA [U33G U60A]	0.0846
GUCCUCUUUCACGUGCGCGUGAAAGAGAGAAGCGAACCAGAGAAACACACGUUGUGGUAAAUUACCUGGUA [U33C U60A]	0.14
GUCCUCUUUCACGUGCGCGUGAAAGAGAGAAGCGAACCAGAGAAACACACGUUGUGGUAGAUUACCUGGUA [U33C U60G]	0.0999
GUCCUCUUUCACGUGCGCGUGAAAGAGAGAAGGGAGCCAGAGAAACACACGUUGUGGUAUAUUACCUGGUA [U33G A36G]	0.0878
GUCCUCUUUCACGUGCGCGUGAAAGAGAGAAGUAAACCAGUGAAACACACGUUGUGGUAUAUUACCUGGUA [G34A A41U]	1.23
GUCCUCUUUCACGUGCGCGUGAAAGAGAGAAGCGAACCAGAGAAACACACGUUGUGGUAUAUUACCUGGCA [U33C U70C]	0.0962
GUCCUCUUUCACGUGCGCGUGAAAGAGAGAAGCGAACCAGAGAAACACACGUUGUGGUAUAUUACCUGGGA [U33C U70G]	0.147
GUCCUCUUUCACGUGCGCGUGAAAGAGAGAAGGGAACCAGAGAAGCACACGUUGUGGUAUAUUACCUGGUA [U33G A45G]	0.0332
GUCCUCUUUCACGUGCGCGUGAAAGAGAGAAGGGAACCAGAGAACCACACGUUGUGGUAUAUUACCUGGUA [U33G A45C]	0.112
GUCCUCUUUCACGUGCGCGUGAAAGAGAGAAGGGAACCAGAGAAACACACGUUGCGGUAUAUUACCUGGUA [U33G U55C]	0.117
GUCCUCUUUCACGUGCGCGUGAAAGAGAGAAGCGAACCAGAGAAACACACCUUGUGGUAUAUUACCUGGUA [U33C G51C]	0.0825
GUCCUCUUUCACGUGCGCGUGAAAGAGAGAAGGGAACCAGAGAAAUACACGUUGUGGUAUAUUACCUGGUA [U33G C46U]	0.16
GUCCUCUUUCACGUGCGCGUGAAAGAGAGAAGGGAACCAGAGAAAAACACGUUGUGGUAUAUUACCUGGUA [U33G C46A]	0.0768
GUCCUCUUUCACGUGCGCGUGAAAGAGAGAAGGCAACCAGAGAAACACACGUUGUGGUAUAUUACCUGGUA [U33G G34C]	0.337
GUCCUCUUUCACGUGCGCGUGAAAGAGAGAAGGGAACCAGAGAAACACACGUUGUGGCAUAUUACCUGGUA [U33G U58C]	0.119
GUCCUCUUUCACGUGCGCGUGAAAGAGAGAAGCGAACCAGAGAAACACACGUUGAGGUAUAUUACCUGGUA [U33C U55A]	0.0653
GUCCUCUUUCACGUGCGCGUGAAAGAGAGAAGGGAACCAGAGAAACACACUUUGUGGUAUAUUACCUGGUA [U33G G51U]	0.252
GUCCUCUUUCACGUGCGCGUGAAAGAGAGAAGGGAACCAGAGAAACACACCUUGUGGUAUAUUACCUGGUA [U33G G51C]	0.202
GUCCUCUUUCACGUGCGCGUGAAAGAGAGAAGCGAACCAGAGAAACACACGUUGUGGUAUAUAACCUGGUA [U33C U63A]	0.142
